According to patent publication US20250222125A1, “Anti-FGFR2b Antibodies, Conjugates and Methods of Use” (BeiGene, Ltd., priority 2024, published 2025):
Entries after “also recorded” stand apart in the source; their conditions may differ.

B1: Aprutumab ixadotin: FGFR2 antibody conjugated to auristatin (conjugate, chains of the INN, looked up)
VH: EVQLLESGGGLVQPGGSLRLSCAASGFTFSSYAMSWVRQAPGKGLEWVSAISGSGTSTYYADSVKGRFTISRDNSKNTLYLQMNSLRAEDTAVYYCARVRYNWNHGDWFDPWGQGTLVTVSS
VL: QSVLTQPPSASGTPGQRVTISCSGSSSNIGNNYVSWYQQLPGTAPKLLIYENYNRPAGVPDRFSGSKSGTSASLAISGLRSEDEADYYCSSWDDSLNYWVFGGGTKLTVL
modifications: auristatin payload conjugate
notes: FGFR2 antibody conjugated to auristatin
B2: BGAm1371: parental murine anti-FGFR2b antibody (parental mouse clone); VH SEQ ID NO: 32, VL SEQ ID NO: 34 (antibody, V domains shown)
VH: QVQLKQSGAELVKPGASVKLSCTASGFNIKDTYIHWVKQRPEQGLEWIGRIDPANGNTMFASEFQGKATITAYTSSNTAYMQLSSLTSGDTAVYYCARSKIHYDYDEGFAYWGQGTLVTVSS
VL: NIVLTQSPPSLAVSLGQRATVSCRASESVDDYGYSFLHWYQQKPGQPPKLLIYRASNLESGIPARFSGSGSRTDFTLTINPVETDDVATYYCQQSNQNPRTFGGGTKLEIK
modifications: Synthetic: VH AA; Synthetic: VL AA
B3: BGAh9239: humanized anti-FGFR2b IgG1 antibody from murine BGAm1823; VH SEQ ID NO: 9, VL SEQ ID NO: 10 (antibody, V domains shown)
VH: QVQLVQSGAEVKKPGSSVKVSCKASGYTFSIYWLNWVRQAPGQGLEWMGQIYPENADTNYSGKFKGRVTITADKSTSTAYMELSSLRSEDTAVYFCARGGFDYWGQGTLVTVSS
VL: DIQMTQSPSSLSASVGDRVTITCRASENIYSNLAWYQQKPGKAPKLLIYTATNLAEGVPSRFSGSGSGTDFTLTISSLQPEDFATYYCQHFYGILYTFGQGTRLEIK
modifications: Synthetic: VH AA; Synthetic: VL AA

How the values were obtained:
[1] = clinical trial, terminated early; cited from earlier work
[2] = target: T1, Human FGFR2b OE cells (Homo sapiens, UniProt P21802); experiment: FACS cellular binding, human FGFR2b OE cells (Example 4)
T1 construct: expressed in transfected cells; host or cells: 293T
T1 sequence (P21802 22-822 isoform P21802-3 limits assumed): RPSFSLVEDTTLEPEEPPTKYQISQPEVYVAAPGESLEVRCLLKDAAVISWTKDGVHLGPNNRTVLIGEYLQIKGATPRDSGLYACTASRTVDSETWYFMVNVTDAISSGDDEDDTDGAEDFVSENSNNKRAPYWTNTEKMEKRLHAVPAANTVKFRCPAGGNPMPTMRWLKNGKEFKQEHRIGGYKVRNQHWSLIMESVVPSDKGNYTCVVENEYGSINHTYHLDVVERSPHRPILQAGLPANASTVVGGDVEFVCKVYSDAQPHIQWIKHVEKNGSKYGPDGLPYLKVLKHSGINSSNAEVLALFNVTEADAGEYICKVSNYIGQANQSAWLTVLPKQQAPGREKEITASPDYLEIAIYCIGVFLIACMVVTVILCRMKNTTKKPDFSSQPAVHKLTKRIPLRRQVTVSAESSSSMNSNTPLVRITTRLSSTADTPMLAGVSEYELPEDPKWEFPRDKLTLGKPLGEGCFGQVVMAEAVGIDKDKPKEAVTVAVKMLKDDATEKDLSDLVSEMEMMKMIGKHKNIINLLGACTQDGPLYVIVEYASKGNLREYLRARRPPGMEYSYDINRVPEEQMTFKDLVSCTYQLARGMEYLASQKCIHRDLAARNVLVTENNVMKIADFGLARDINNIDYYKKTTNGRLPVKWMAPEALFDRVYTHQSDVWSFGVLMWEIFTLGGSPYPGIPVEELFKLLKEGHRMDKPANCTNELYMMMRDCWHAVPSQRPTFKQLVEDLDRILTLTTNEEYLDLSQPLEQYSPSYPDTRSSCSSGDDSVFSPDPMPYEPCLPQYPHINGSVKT
Procedure: (§1) The binding affinity and specificity of purified anti-FGFR2b antibodies were determined by ELISA and FACS. […] After incubation and washing, the plates were developed with HRP substrate and absorbance was measured. […] After washing twice with FACS buffer, diluted Alexa Fluor 647 goat anti-human IgG secondary antibody was added and incubated with cells for 30 minutes at 4° C. in the dark. After washing twice with FACS buffer, cells were resuspended with FACS buffer and read using a Becton Dickinson LSR FortessaTM cell analyzer. Non-specific binding of these antibodies was evaluated by FACS binding against parental 293T blank cells. Titration curves were generated using a sigmoidal dose-response of nonlinear fit from GraphPadTM Software by Dotmatics.

[3] = target: T2, Human FGFR2c (Homo sapiens, UniProt P21802); experiment: ELISA binding to recombinant human FGFR2c (Example 11); settings: for Emax (A450): human FGFR2c; for binding to human FGFR2c: in words
T2 sequence (P21802 22-821): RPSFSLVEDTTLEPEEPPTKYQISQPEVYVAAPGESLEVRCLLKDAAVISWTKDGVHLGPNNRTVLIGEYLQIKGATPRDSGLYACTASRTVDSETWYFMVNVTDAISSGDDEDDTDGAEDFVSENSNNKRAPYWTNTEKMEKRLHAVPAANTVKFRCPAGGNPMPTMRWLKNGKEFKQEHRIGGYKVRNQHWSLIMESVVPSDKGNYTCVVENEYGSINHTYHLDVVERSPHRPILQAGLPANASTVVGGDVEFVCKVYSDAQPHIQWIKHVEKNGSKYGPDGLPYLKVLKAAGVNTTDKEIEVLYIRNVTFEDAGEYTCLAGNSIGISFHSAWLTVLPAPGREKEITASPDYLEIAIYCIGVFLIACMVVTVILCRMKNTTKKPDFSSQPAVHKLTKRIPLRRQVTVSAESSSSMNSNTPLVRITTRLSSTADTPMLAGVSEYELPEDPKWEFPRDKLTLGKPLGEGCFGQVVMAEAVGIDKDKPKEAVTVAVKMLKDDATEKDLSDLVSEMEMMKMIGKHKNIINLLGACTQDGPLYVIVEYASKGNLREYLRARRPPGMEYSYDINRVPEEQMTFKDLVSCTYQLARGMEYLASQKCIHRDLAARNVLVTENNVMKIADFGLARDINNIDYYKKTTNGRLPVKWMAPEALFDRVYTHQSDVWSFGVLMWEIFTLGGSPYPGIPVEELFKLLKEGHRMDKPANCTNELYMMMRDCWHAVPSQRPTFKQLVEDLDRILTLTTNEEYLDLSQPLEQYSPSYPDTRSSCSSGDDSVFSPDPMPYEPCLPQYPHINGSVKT

[4] = system: BaF3_hFGFR2b OE cells; experiment: Ligand-induced proliferation inhibition assay in BaF3_hFGFR2b OE cells; type: cell-based; settings: antibody 10 μg/ml, heparin 5 μg/ml, 72 hours
Procedure: The inhibition activity of antibody on ligand-induced cell proliferation was evaluated in an FGFR2b engineered BaF3 cell line system (BaF3_hFGFR2b OE). BaF3 cells are dependent on interleukin-3 (IL-3) for growth. The BaF3 system allows for testing of kinases and kinase inhibitors. Some protein kinases can render BaF3 cells to be independent of IL-3, whereas kinase inhibitors antagonize this effect. Cells were seeded in 96-well plates at 30,000 cells/well in RPMI-1640 medium containing 10% fetal bovine serum. Anti-FGFR2b antibodies at a concentration of 10 μg/ml were added to the assay plates. Recombinant human FGF7 or FGF10 protein (40 ng/ml) in the presence of heparin (5 μg/ml) was added to the assay plates. The plates were incubated at 37° C., 5% CO2, 95% humidity in an incubator for 72 hours. Following incubation, 50 μl Cell Titer Glo reagent was added to each well and the plates were mixed for 1 min and then incubated at RT for 10 min. Luminescence signals were detected and recorded.
The Ba/F3 system is used to investigate downstream oncogenic signaling pathways and the susceptibility of driver variants to therapeutics. Driver-addicted Ba/F3 cells die when the driver-engaged signaling pathway is inhibited, and this effect can be rescued by re-introduction of […].
FIGS. 6 and 7 show the results of Ba/F3 proliferation assays. The net growth on Ba/F3 cells overexpressing FGFR2b is reported after treatment with anti-FGFR2b antibodies of the present disclosure. Normal Ba/F3 cells die shortly after withdrawal of exogenous […]. […] Comparator BGA2311 binds at the N-terminus and is not considered to be a ligand blocker. Thus, BGAm1371 may partially block the FGFR2b signaling pathway, such as the signaling pathway mediated by FGF7.

[5] = system: phosphorylated FGFR in SNU-16 cells; experiment: Inhibition of FGFR2 signaling in SNU-16 cells (Western blot of pFGFR); type: cell-based; settings: antibody 10 μg/ml, FGF7 10 ng/ml, 2 hours
Procedure: Inhibition of the FGFR2 signaling pathway by the humanized antibodies was investigated. SNU-16 cells were grown in RPMI-1640 medium with 10% FBS, collected and washed twice with free medium and then seeded in 12-well plates at 1.5E6 cells/well in serum-free RPMI-1640. The plates were incubated at 37° C., 5% CO2, and 95% humidity in an incubator overnight. Anti-FGFR2b antibodies at a concentration of 10 μg/ml were added to the assay plates. Recombinant human FGF7 or FGF10 protein (10 ng/ml) in the presence of heparin (5 μg/ml) was added to the assay plates. The plates were incubated in a 37° C., 5% CO2, 95% humidity incubator for 2 hours. Following 2 hours incubation, cells were collected and washed twice with cold PBS. NP40 lysis buffer containing 1×PMSF and 1× Protease plus phosphatase inhibitors were added to the cell pellets. The mixture was pipetted up and down to suspend the pellet. The mixture was inverted gently and each placed for 10 minutes on ice, for a total of 30 minutes. The mixture was centrifuged at 12000× rpm for 10 minutes to pellet the cell debris. The supernatant was transferred to a new tube to quantify total protein concentration by BCA Kit. The protein samples were then split and stored at −80° C. for further Western blotting to detect the expression of pFGFR and total FGFR2.
Western blotting procedure: The completely thawed protein samples were mixed with 4×SDS loading buffer and were heated for 10 min at 37° C. Then the mixtures were centrifuged at ˜3500×rpm for 5 min. Equal amounts of proteins were loaded into an SDS-PAGE gel, whereafter proteins were transferred to PVDF membranes using iBlot. The membranes were then subjected to Western blotting analysis, focusing on phosphorylated FGFR and total FGFR2.

[6] = system: 293T blank cells; experiment: FACS non-specific binding, parental 293T blank cells (Example 4)
Procedure: as §1

[7] = target: T3, Mouse FGFR2b (Mus musculus, UniProt P21803); experiment: FACS binding on Expi293 cells, mouse FGFR2b (Example 10); settings: Expi293 cells overexpressing mouse FGFR2b
T3 construct: expressed in transfected cells; host or cells: Expi293
T3 sequence (P21803 22-707 isoform P21803-2 limits assumed): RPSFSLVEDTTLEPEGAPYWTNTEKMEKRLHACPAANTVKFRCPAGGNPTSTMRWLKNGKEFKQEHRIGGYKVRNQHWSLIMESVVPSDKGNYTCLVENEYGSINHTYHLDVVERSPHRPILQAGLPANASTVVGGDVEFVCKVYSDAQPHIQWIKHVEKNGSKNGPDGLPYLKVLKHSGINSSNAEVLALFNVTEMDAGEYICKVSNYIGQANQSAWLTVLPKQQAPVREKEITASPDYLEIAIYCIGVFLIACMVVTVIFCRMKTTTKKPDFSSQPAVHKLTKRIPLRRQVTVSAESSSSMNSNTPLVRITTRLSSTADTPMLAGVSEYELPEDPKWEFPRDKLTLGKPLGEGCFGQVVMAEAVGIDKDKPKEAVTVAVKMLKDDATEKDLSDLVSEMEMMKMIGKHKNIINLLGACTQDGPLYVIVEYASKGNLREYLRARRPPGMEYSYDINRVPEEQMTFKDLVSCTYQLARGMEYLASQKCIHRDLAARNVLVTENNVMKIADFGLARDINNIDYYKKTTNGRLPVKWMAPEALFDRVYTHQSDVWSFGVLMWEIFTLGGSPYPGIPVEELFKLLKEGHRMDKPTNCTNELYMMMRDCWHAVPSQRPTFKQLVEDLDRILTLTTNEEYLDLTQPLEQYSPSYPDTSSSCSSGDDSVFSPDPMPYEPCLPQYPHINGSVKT
Procedure: (§2) To evaluate the binding activity of anti-FGFR2b antibodies to native FGFR2b on living cells, Expi293 cells were engineered to overexpress human FGFR2b, cyno FGFR2b, mouse FGFR2b, or human FGFR2c. Expi293 cells expressing antigens were seeded in 96-well plates, and were incubated with serially diluted anti-FGFR2b antibodies. Goat anti-human IgG [Alexa Fluor® 647] […] The change of mean fluorescent intensity (MFI) of humanized candidates BGAh9239 and BGAh9179 was measured by flow cytometry. EC50 values for dose-dependent binding to native human FGFR2b, cyno FGFR2b, mouse FGFR2b, and human FGFR2c were determined using sigmoidal dose-response curves of nonlinear fit from GraphPad Prism™.

[8] = target: T4, Murine FGFR2b OE cells (Mus musculus, UniProt P21803); experiment: FACS cellular binding, murine FGFR2b OE cells (Example 4)
T4 construct: expressed in transfected cells; host or cells: 293T
T4 sequence (P21803 22-707 isoform P21803-2 limits assumed): as above
Procedure: as §1

[9] = target: T2, Human FGFR2c; experiment: ELISA protein binding to human FGFR2c (Example 4); settings: coated protein
Procedure: as §1

[10] = system: Cyno FGFR2b; experiment: SPR affinity determination, cyno FGFR2b (Example 9); type: binding
Procedure: (§3) For affinity determination, antibodies were captured by anti-human Fc antibodies, and used in the affinity assay based on surface plasmon resonance (SPR) technology. SPR signals were analyzed to calculate the association rates (ka) and dissociation rates (kd) by using the one-to-one Langmuir binding model (BIA Evaluation Software, GE Life Sciences). The equilibrium dissociation constant (KD) was calculated as the ratio of kd/ka. Rmax represents the maximal feasible SPR signal generated by an interaction between a ligand-analyte pair and is represented in response units (RU). BGAh9239 and BGA9179 show similar binding profiles to human FGFR2b and cyno FGFR2b, and are similar to their parental antibodies BGAm1823 and BGAm1371, respectively.

[11] = target: T5, human FGFR2b (Homo sapiens, UniProt P21802); experiment: FACS binding to native FGFR2b on Expi293 cells, human FGFR2b (Example 10); settings: Expi293 cells overexpressing human FGFR2b
T5 sequence (P21802 22-822 isoform P21802-3 limits assumed): as the sequence (P21802 22-822 isoform P21802-3 limits assumed) above
Procedure: as §2

[12] = system: Cyno FGFR2b; experiment: ELISA binding to recombinant cyno FGFR2b (Example 11)
[13] = target: T5, human FGFR2b; experiment: SPR affinity determination, human FGFR2b (Example 9); type: binding; settings: for Kd: kd/ka
Procedure: as §3

[14] = target: T5, human FGFR2b; experiment: ELISA protein binding to human FGFR2b (Example 4); settings: coated protein
Procedure: as §1

[15] = target: T5, human FGFR2b; experiment: ELISA binding to recombinant human FGFR2b (Example 11)
[16] = target: Human FGFR2c OE cells (Homo sapiens, UniProt P21802); experiment: FACS cellular binding, human FGFR2c OE cells (Example 4)
Human FGFR2c OE cells, sequence (P21802 22-821): as the sequence (P21802 22-821) above
Procedure: as §1

[17] = target: T2, Human FGFR2c; experiment: FACS binding on Expi293 cells, human FGFR2c (Example 10); settings: for Emax (MFI): Expi293 cells overexpressing human FGFR2c
Procedure: as §2

[18] = target: T6, soluble human FGFR2b proteins (Homo sapiens, UniProt P21802); experiment: SPR binding kinetics (Biacore 8K, Example 5); settings: room temperature
T6 construct: soluble human FGFR2b proteins (his tag, in-house generated); His tag; made in house
T6 sequence (P21802 22-378 isoform P21802-3 limits assumed): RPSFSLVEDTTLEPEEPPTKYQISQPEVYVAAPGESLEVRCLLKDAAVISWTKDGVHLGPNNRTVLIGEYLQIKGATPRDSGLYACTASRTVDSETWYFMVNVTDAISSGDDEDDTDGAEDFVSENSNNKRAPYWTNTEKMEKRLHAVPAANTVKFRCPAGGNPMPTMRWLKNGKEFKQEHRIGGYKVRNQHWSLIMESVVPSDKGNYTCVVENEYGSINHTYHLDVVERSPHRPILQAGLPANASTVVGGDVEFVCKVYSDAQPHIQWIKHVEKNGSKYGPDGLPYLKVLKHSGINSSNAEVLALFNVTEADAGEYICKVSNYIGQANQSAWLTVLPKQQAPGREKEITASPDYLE
Procedure: The binding affinity and kinetics of purified anti-FGFR2b antibodies were determined by surface plasmon resonance (Biacore 8K, GE Life Sciences) at room temperature. Briefly, mouse anti-human IgG Fc antibody was immobilized via amine coupling onto a activated CM5 biosensor chip (Cat. No. BR100530, GE Life Sciences). Purified monoclonal antibody candidates were flowed over the chip surface and captured by anti-human IgG antibody. Then a serial dilution of soluble human FGFR2b proteins (his tag, in-house generated) were injected over the antibodies captured surface and changes in surface plasmon resonance signals were analyzed to calculate the association rates (kon) and dissociation rates (koff) by using the one-to-one Langmuir binding model (BIA Evaluation Software, GE Life Sciences). The equilibrium dissociation constant (KD) was calculated as the ratio koff/kon.

Molecule	EC50 [2] [nM]	Emax (A450) [3] [A450]	binding to human FGFR2c [3]	293T blank cells binding Emax [6] [MFI]	EC50 [7] [nM]	Emax (MFI) [7] [MFI]	EC50 [8] [nM]	Human FGFR2c binding Emax(OD450) [9] [OD450]	ka [10] [M^−1S^−1]	kd [10] [S^−1]	EC50 [11] [nM]	Emax (MFI) [11] [MFI]	Emax (A450) [12] [A450]	Rmax [13] [RU]	ka [13] [M^−1S^−1]	kd [13] [S^−1]	Kd [13] [nM]	EC50 [14] [nM]	Human FGFR2b binding Emax(OD450) [14] [OD450]	EC50 [15] [nM]	also measured
B1																					tolerability in clinical testing [1]: poorly tolerated
B2	1.25	0.204	no detectable binding	28	3.5	4984598	1.78	0.07	7.97E+04	1.25E−03	1.5	3052664	3.018	96.3	7.29E+04	1.19E−03	16.3	0.19	3.35	0.0309	inhibition of FGF7-induced BaF3_hFGFR2b cell proliferation ([4]; FGF7 40 ng/ml): ten times less potent compared to BGA1421 and BGAm1823; also recorded: weaker blocking than comparator BGA1421; inhibition of FGF10-induced BaF3_hFGFR2b cell proliferation ([4]; FGF10 40 ng/ml): did not inhibit the net growth; FGF7-induced FGFR phosphorylation [5]: weakly inhibited; Emax (A450) [15]: 3.013 A450; Human FGFR2c OE cells binding Emax [16]: 33 MFI; Emax (MFI) [17]: 23051 MFI
B3	1.84	0.130	no detectable binding	31	2.67	5098781	1.59	0.07	7.99E+04	2.72E−03	2.4	3082608	2.931	80.9	8.05E+04	3.00E−03	37.3	0.26	3.37	0.031	ka ([18]; antibody captured): 76600 M⁻¹ s⁻¹; kd ([18]; antibody captured): 0.00189 s⁻¹; Kd ([18]; koff/kon): 24.7 nM; Emax (A450) [15]: 2.945 A450; Human FGFR2c OE cells binding Emax [16]: 36 MFI; Emax (MFI) [17]: 23848 MFI; binding to native human FGFR2c ([17]; living Expi293 cells, in words): no detectable binding
